Source: PMC5826061

Molecular target: T1, GlnR (Streptomyces coelicolor) (UniProt Q05943)
T1 sequence: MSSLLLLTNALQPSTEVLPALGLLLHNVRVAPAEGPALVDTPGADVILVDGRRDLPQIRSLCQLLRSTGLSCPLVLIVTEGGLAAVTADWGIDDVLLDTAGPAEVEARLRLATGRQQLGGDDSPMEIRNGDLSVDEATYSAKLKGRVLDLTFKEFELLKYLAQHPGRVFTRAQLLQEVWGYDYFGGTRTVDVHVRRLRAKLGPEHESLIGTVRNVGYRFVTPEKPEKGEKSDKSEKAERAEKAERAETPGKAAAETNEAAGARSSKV
Assay: DNase I footprinting
Conditions: 50 mM Tris-HCl pH 8.0, 100 mM KCl, 2.5 mM MgCl2, 1 mM DTT, 10% glycerol; EMSA in 20 ul with 100 ng/ul sheared salmon sperm DNA, room temperature, 20 min …

GTAAAACGACGGCCAGTCCATGCCAGGTCATTCGGAGGCCGCCGCGGCCGGCTTGCGTTCCGGGCCGGACGGCCCGGGCACGACGACGACCGGCCCCGGCCGTTCACCCACGCGTAACACGCACCGTGCCTTCGTCACGGCGGCGAAACAACGAGAAATCTCCACCGAAACCGCGCTGCGTCAATGTCGTGGCGCATAACCGGCCCACCCCTCACCGCCCGCCCGCCAGGCTTCGCCCCCACGGGGCCGCACCAACGACGAGGAGACGCCGATGTCTAGATTTTT (double strand) [amtB promoter a2m footprint probe]
binding: binds

GTAAAACGACGGCCAGTCCATGCCAGGTCATTCGGAGGCCGCCGCGGCCGGCTTGCGTTCCGGGCCGGACGGCCCGGGCACGACGACGACCGGCCCCGGCCGTTCACCCACGCGTAACACGCACCGTGCCTTCGTCACGGCGGCGAAACAACGAGGGGCTTCCACCGAAACCGCGCTGCGTCAATGTCGTGGCGCATAACCGGCCCACCCCTCACCGCCCGCCCGCCAGGCTTCGCCCCCACGGGGCCGCACCAACGACGAGGAGACGCCGATGTCTAGATTTTT (double strand) [amtB promoter WT footprint probe]
binding: binds

GTAAAACGACGGCCAGTCCATGCCAGGTCATTCGGAGGCCGCCGCGGCCGGCTTGCGTTCCGGGCCGGACGGCCCGGGCACGACGACGACCGGCCCCGGCCGTTCACCCACGCGTAACACGCAGGGGCTTCCACCGAAACCGCGCTGCGTCAATGTCGTGGCGCATAACCGGCCCACCCCTCACCGCCCGCCCGCCAGGCTTCGCCCCCACGGGGCCGCACCAACGACGAGGAGACGCCGATGTCTAGATTTTT (double strand) [amtB promoter m3 footprint probe]
binding: binds
